The values below come from patent US5502166, “NMDH receptor proteins and genes encoding the same” (Mitsubishi Chemical Corporation, dated 1996).

This assay deals with ζ1 NMDA type glutamate receptor subunit (mouse, wild type) (mouse, UniProt P35438). Kind of assay: cell-based or functional assay.

B1: glutamate receptor ε3 subunit (mouse NMDA type glutamate receptor channel subunit) (receptor)
chain: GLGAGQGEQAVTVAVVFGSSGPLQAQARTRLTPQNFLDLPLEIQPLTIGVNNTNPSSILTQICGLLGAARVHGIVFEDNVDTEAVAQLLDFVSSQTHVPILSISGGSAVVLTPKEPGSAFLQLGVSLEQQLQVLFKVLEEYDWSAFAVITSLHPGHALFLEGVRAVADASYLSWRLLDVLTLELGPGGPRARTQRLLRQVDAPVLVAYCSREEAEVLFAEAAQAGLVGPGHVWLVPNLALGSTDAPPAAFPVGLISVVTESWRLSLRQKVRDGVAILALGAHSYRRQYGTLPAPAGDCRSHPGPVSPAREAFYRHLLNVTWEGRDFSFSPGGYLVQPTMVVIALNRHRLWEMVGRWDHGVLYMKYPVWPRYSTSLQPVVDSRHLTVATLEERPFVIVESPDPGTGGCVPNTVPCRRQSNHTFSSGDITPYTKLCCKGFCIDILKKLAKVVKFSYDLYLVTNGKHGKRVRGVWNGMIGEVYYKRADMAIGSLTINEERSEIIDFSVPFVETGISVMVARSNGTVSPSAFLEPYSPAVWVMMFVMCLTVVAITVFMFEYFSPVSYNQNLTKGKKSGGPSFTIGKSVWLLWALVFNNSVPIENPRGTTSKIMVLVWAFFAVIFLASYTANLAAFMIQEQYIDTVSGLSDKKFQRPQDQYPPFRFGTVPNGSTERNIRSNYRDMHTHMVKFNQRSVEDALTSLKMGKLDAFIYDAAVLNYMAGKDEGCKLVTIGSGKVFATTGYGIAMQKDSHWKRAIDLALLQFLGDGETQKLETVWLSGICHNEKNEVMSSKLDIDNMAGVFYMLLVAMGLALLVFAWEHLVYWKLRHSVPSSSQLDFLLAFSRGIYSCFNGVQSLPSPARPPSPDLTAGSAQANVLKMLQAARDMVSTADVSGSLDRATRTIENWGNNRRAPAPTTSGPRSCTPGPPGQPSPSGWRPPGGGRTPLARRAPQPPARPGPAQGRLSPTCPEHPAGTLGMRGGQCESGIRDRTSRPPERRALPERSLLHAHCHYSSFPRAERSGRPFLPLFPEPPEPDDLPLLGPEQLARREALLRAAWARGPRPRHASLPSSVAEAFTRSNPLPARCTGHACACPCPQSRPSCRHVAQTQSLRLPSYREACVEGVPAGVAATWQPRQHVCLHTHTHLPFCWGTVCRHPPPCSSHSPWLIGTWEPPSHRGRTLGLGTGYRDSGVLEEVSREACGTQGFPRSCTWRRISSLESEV
For the molecule B1, the “inward current at a membrane potential of -70 mV, Xenopus oocytes, 10 µM L-glutamate and 10 µM glycine, frog standard Ringer's solution” value was 191 nA.
